Measurements reported in paper PMC3104520 (Biochemistry, 2011).
Like-named read-outs stand apart in the source and are kept apart here.

Assays:
Assay in all cases: diffusion NMR
diffusion NMR [1] = molecular target: the molecule itself
diffusion NMR [2] = molecular target: the molecule itself; remark: listed apart in the source
diffusion NMR [3] = molecular target: the molecule itself; remark: listed apart in the source

B1: Surfactant protein A (SP-A), bovine (natural protein)
chain: not shown
stoichiometry N (diffusion NMR [1]): ~10 molecules | stoichiometry N (diffusion NMR [2]): ~9 molecules | stoichiometry N (diffusion NMR [3]): ~12 molecules
